US20160333063A1, “SOLUBLE HIGH MOLECULAR WEIGHT (HMW) TAU SPECIES AND APPLICATIONS THEREOF” (THE GENERAL HOSPITAL CORPORATION, priority 2013, published 2016)

Molecular target: amyloid beta (Aβ, measured as Aβ40) in conditioned medium from Tg2576 neuronal cultures (TgCM) (human and murine) (UniProt P05067)
Assay: immunodepletion of TgCM with 9 µg 6E10 and Protein G-Sepharose beads; Aβ40 ELISA of the supernatant (TgCM about 12 nM Aβ40 before depletion)

amyloid beta (Aβ, measured as Aβ40) in conditioned medium from Tg2576 neuronal cultures (TgCM) (human and murine), sequence (P05067 672-711 limits assumed): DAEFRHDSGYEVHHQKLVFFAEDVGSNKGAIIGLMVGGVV

**Q.** How did the Aβ40 left in the medium after immunodepletion turn out when “6E10 (Signet), a high-titer mouse monoclonal Aβ antibody reactive to amino acid residue 1-16 of beta amyloid” was run?
**A.** 0.1 nM
